# Experimental data taken from publication PMC10730914, “Multiple independent losses of the biosynthetic pathway for two tropane alkaloids in the Solanaceae family” (Nature Communications, 2023).
# Key:
# Settings in all cases: 200 µM NADPH, 0.1 M potassium phosphate pH 6.4, 30 °C
# [1] = test system: CN1[C@@H]2CC[C@H]1CC(=O)C2; test: purified protein; format: biochemical, Solanum tuberosum
# McTRI = test system: T1, McTRI; test: NADPH consumption at […] nm, Michaelis-Menten fit; format: biochemical, Mandragora caulescens
# T1 construct: gene TRI
# LcTRI = test system: T2, LcTRI; test: NADPH consumption at […] nm, Michaelis-Menten fit; format: biochemical, Lycium chinense
# T2 construct: gene TRI
# BaTRI = test system: T3, BaTRI; test: NADPH consumption at […] nm, Michaelis-Menten fit; format: biochemical, Brugmansia arborea
# T3 construct: gene TRI
Compound,Km [1],kcat [1],Km (McTRI),Km (LcTRI),Km (BaTRI)
StTRI (Solanum tuberosum; A101V/L159V),280 ± 70 µM,3.31 ± 0.20 s⁻¹,,,
"CN1[C@@H]2CC[C@H]1CC(=O)C2 [compound 5, tropinone]",,,90 ± 10 µM,2910 ± 140 µM,310 ± 30 µM
StTRI (Solanum tuberosum; A101V/A193G/L159V/V147L),110 ± 10 µM,,,,
